Assay results published in patent US7883707B2, “Induction of antigen specific immunnologic tolerance” (priority 2002, dated 2011).
Values joined by “and” are separate entries in the source; they are usually repeats but may differ in a detail not shown here. Equal entries are not always repeated. “Also recorded” adds a separate entry of the source.

Assays:
Hurler fibroblasts = assay: Half maximal uptake (Kuptake) of iduronidase into Hurler fibroblasts; assay type: cell-based
Description: It is especially preferred that the receptor has a Kuptake for the ligand of at least about 10^−6 M, usually at least about 10^−7 M more usually at least about 10^−8 M and preferably at least about 10^−9 M where Kuptake represents the concentration of ligand at which half maximal uptake occurs in a cell. Receptors of interest include the transferrin receptor, the melanotransferrin receptor, mannose 6-phosphate receptor, growth hormone receptor, and the like. Cognate ligands include: insulin-like growth factor II (IGF2), transferrin, growth hormone, insulin, and binding fragments thereof, particularly polypeptides having specific and high affinity receptors on diverse cell types. Single chain antibodies and binding agents from randomized phage display systems could be used if they have adequate affinity for the receptor. To determine the Kuptake of a ligand and receptor combination, methods known in the art may be used, for example see Kakkis et al. (1994) Protein Expr Purif 5(3):225-32 for assays used to determine the Kuptake of alpha-L-iduronidase. The disclosed methods are readily adapted to any ligand and receptor combination. Such assays are also useful in verifying the uptake of toleragens comprising exogenous high uptake moieties.
Enzyme Infusions. […] Animals monitored for an anaphylactic reaction. […]

[1] = tested on: IgA and IgE antibodies to iduronidase; assay: ELISA for IgG, IgA and IgE antibodies to iduronidase in canine sera; assay type: in vivo; details: before vs after 12 weekly infusions with iduronidase
Description: The tolerance regimen in canine prevents the induction of IgG as manifested by a decrease in total IgG response against iduronidase as compared to the IgG response observed in non-tolerant canines. […] Analyses of the immune sera of canines that were either tolerant (dogs […] and SA) or canine controls (dogs RU and UM) that had not received the tolerizing regimen were studied for the presence of IgG, IgA and IgE antibodies to iduronidase.

[2] = dog, in vivo
Description: Canines were administered 14,000 U/kg/week α-L-iduronidase or higher dose as dose was ramped up, in a 50 mL infusion in saline containing 1 mg/mL canine albumin, 10 mM NaPO4, pH 5.8. Administered intravenously over 2 hours (1st hour 3,000 U/kg/hr; 2nd hour 11,000 U/kg/hr, or a higher rate in the 2nd hour depending on the dose). Animals were monitored for anaphylactic reaction.

[3] = tested on: antibody titer to iduronidase; assay: ELISA antibody titer to iduronidase in canines on weekly iduronidase infusions, with or without tolerance regimens
Description: Normal and MPS I canines were obtained from the MPS I canine colony at Harbor-UCLA. The dogs are a cross between beagles and Plott hounds and average 12-20 kg in weight. The canines were under 2 years of age and at least 4 months of age for these experiments.
Enzyme Infusions. […] For toleragenic infusions, 14,000 U/kg/week α-L-iduronidase in 50 mL infusion in saline with 1 mg/mL canine albumin, and 10 mM NaPO4 was administered intravenously over 2 hours (1st hour 3,000 U/kg/hr; 2nd hour 11,000 U/kg/hr). Animals monitored for an anaphylactic reaction.
Canines were initiated on immunosuppressive drugs at day 0, equivalent to 18 days prior to the first enzyme challenge. If scheduled, the canines received monoclonal antibodies by intravenous infusion (2-5 mg) just prior to ITI. On day 4, the dogs received, if scheduled, an intrathymic injection of iduronidase at 1 mg/kg. Two weeks later, the dogs were begun on a weekly schedule of iduronidase enzyme infusions consisting of a weekly intravenous infusion of 14,000 U/kg (0.056 mg/kg/wk) of human recombinant iduronidase.
All canines received 0.056 mg/kg/week rh iduronidase intravenous challenges. Pre treatment ELISA values represent serum antibody levels prior to first antigen challenge with iduronidase.
Iduronidase was the same high uptake iduronidase as described above. The canines were challenged with 0.58 mg/kg of enzyme administered intravenously on a weekly basis for 3-6 doses.

ovalbumin = assay: Attempted induction of tolerance to ovalbumin; assay type: in vivo; details: ovalbumin with mannose terminated N-linked oligosaccharides
Description: The titer in the tolerance dogs stayed low for several months and was studied in RO and SA for 6 months of weekly infusions (FIG. 2).

B1: iduronidase: recombinant human α-L-iduronidase, lysosomal hydrolase with mannose 6-phosphate marker (protein, UniProt P35475 28-653, looked up)
Alpha-L-iduronidase: APHLVHVDAARALWPLRRFWRSTGFCPPLPHSQADQYVLSWDQQLNLAYVGAVPHRGIKQVRTHWLLELVTTRGSTGRGLSYNFTHLDGYLDLLRENQLLPGFELMGSASGHFTDFEDKQQVFEWKDLVSSLARRYIGRYGLAHVSKWNFETWNEPDHHDFDNVSMTMQGFLNYYDACSEGLRAASPALRLGGPGDSFHTPPRSPLSWGLLRHCHDGTNFFTGEAGVRLDYISLHRKGARSSISILEQEKVVAQQIRQLFPKFADTPIYNDEADPLVGWSLPQPWRADVTYAAMVVKVIAQHQNLLLANTTSAFPYALLSNDNAFLSYHPHPFAQRTLTARFQVNNTRPPHVQLLRKPVLTAMGLLALLDEEQLWAEVSQAGTVLDSNHTVGVLASAHRPQGPADAWRAAVLIYASDDTRAHPNRSVAVTLRLRGVPPGPGLVYVTRYLDNGLCSPDGEWRRLGRPVFPTAEQFRRMRAAEDPVAAAPRPLPAGGRLTLRPALRLPSLLLVHVCARPEKPPGQVTRLRALPLTQGQLVLVWSDEHVGSKCLWTYEIQFSQDGKAYTPVSRKPSTFNLFVFSPDTGAVSGSYRVRALDYWARPGPFSDPVPYLEVPVPRGPPSPGNP
Kuptake (enzyme concentration at half maximal uptake) (Hurler fibroblasts): about 1 nanomolar
increase in IgA or IgE titer to iduronidase [1]: ~10 fold
anaphylactic / anaphylactoid reaction during the infusion [2]: serious clinical anaphylactic reaction
mean antibody titer after 12 weekly infusions of rhIDU ([3]; ELISA, eight normal and MPS I canines vs eight control canines): 149 OD units/μl serum
Antibody levels at week 15 ([3]; MPS I canines, iduronidase raised stepwise to 0.500 mg/kg/week at week 15): > 500 OD Units
titer on reexposure (anamnestic response) ([3]; canine Nitro, after nearly 6 months hiatus, 0.5 mg/kg/wk infusions): ≥ 400
further increase in antibody titer on higher therapeutic doses ([3]; immune responsive canines): 2-3 fold
induction in antibody titer on rechallenge ([3]; non-tolerant canine RU, after 2 doses of enzyme following 4.5 month hiatus): > 20 fold
titers by week 14 of enzyme therapy ([3]; two MPS I canines previously treated with 0.5 mg/kg/wk, no tolerance regimen, 0.5 mg/kg): 1800 and 2000
mean antibody titer on higher therapeutic doses of iduronidase ([3]; up to 6 months, n=6 tolerant, n=2 immune responsive): 369 OD/μl serum

B2: ovalbumin: non-phosphorylated protein antigen with mannose terminated N-linked oligosaccharides (protein, UniProt P01012 2-386, looked up)
Ovalbumin: GSIGAASMEFCFDVFKELKVHHANENIFYCPIAIMSALAMVYLGAKDSTRTQINKVVRFDKLPGFGDSIEAQCGTSVNVHSSLRDILNQITKPNDVYSFSLASRLYAEERYPILPEYLQCVKELYRGGLEPINFQTAADQARELINSWVESQTNGIIRNVLQPSSVDSQTAMVLVNAIVFKGLWEKAFKDEDTQAMPFRVTEQESKPVQMMYQIGLFRVASMASEKMKILELPFASGTMSMLVLLPDEVSGLEQLESIINFEKLTEWTSSNVMEERKIKVYLPRMKMEEKYNLTSVLMAMGITDVFSSSANLSGISSAESLKISQAVHAAHAEINEAGREVVGSAEAGVDAASVSEEFRADHPFLFCIKHIATNAVLFFGRCVSP
induction of tolerance to ovalbumin (ovalbumin): did not succeed; also recorded: could not

B3: dephospho iduronidase: recombinant iduronidase dephosphorylated by incubation with acid phosphatase bound to beads (protein, UniProt P35475 28-653, looked up)
Alpha-L-iduronidase: B1 Alpha-L-iduronidase
modifications: dephosphorylated
Kuptake (enzyme concentration at half maximal uptake) (Hurler fibroblasts): too low to be calculated
tolerance induction with this form of the toleragen ([3]; canines, applied with the tolerance regimen (CsA+Aza), listed as dephosphorylated rhIDU): did not allow induction of the tolerant state
